{"source": "paper PMC4359774", "about": "“AZT resistance alters enzymatic properties and creates an ATP-binding site in SFVmac reverse transcriptase”", "binders": {"B1": {"name": "24/40-mer DNA/DNA primer/template (dsDNA)", "DNA 1": "CTAATTCCGCTTTCCCCTCTCCTGGTGATCCTTTCCATCC", "DNA 2": "ATCACCAGGAGAGGGGAAAGCGGA"}}, "molecular_target": "T1, SFVmac PR-RT WT (Simian foamy virus from macaques …, UniProt P23074 1-751)", "T1 sequence": "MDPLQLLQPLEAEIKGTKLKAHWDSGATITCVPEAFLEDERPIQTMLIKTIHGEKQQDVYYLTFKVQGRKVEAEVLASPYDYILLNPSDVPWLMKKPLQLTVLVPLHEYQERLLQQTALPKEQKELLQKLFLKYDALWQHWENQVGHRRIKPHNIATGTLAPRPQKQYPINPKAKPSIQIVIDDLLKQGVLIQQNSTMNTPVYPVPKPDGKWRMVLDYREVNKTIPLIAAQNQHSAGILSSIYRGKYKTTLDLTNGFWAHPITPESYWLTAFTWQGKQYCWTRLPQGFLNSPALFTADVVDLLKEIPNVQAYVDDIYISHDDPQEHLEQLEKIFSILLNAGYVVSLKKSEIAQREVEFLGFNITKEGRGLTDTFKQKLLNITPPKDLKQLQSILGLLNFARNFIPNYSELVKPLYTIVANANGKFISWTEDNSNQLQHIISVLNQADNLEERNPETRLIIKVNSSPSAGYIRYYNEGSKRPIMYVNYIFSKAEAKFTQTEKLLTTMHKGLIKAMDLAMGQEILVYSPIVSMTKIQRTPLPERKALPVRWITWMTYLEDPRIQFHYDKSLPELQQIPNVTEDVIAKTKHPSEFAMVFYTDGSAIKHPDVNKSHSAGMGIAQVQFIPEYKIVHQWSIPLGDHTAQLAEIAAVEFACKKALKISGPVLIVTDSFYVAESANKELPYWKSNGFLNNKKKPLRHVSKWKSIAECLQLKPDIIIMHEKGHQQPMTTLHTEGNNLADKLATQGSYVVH", "test": "fluorescence anisotropy; Fluorescence equilibrium titration, 5 nM DNA, 25 C; buffer, salt and pH not given in the material (refs 14, 43)", "settings": "protein: recombinant; label: 5' DY647 on template (S6); 24 bp; template 5' overhang 5 nt and 3' overhang 11 nt", "data": [{"binder": "B1", "values": [{"measurement": "Kd", "result": "9.6 ± 0.7", "unit": "nM"}]}]}
